Test [1] has as its target T1, Unprocessed hMPV PreF trimer (human metapneumovirus, strain B2).
T1 construct: also called Unprocessed hMPV WT PreF trimer; unprocessed hMPV PreF trimeric antigen
Description: BLI, mAb on anti-human Fc sensor. Background: BLI is a label-free optical method that tracks binding on a fibre tip over time.

In test [2] the target is T2, Processed stabilized hMPV PreF trimer (115BV) (human metapneumovirus, strain B2).
T2 construct: also called Processed hMPV PreF trimer; processed PreF
The test is described as follows: BLI, mAb on anti-human Fc sensor.

The target of test [3] is T3, hMPV PostF trimer (human metapneumovirus, strain B2).
T3 construct: also called MPV PostF (dPFv1)
Description: BLI, mAb on anti-human Fc sensor.

Test [4] deals with T2, Processed stabilized hMPV PreF trimer …. The test is described as follows: BLI, ratio to unprocessed PreF trimer.

B1: M3E09 (antibody, V domains shown)
VH: EVQLVESGGGVVRPGGSLRLSCAASGFRFDDYAMNWVRQAPGKGLEWVSGINWIGGTTKYADSVKGRFTISRDNTKNSLYLQMNSLRAEDTALYYCARGVGYYYYYMDVWGRGTTVTVSS
VL: EIVLTQSPGTLSLSPGERATLSCRATQSVSSNYLAWYQQKPGQAPRLLIYDASSRAIGIPDRFSGSGSGTDFTLTISRLESEDFAVYYCQQYGSSPETFGQGTKVEIK
notes: IgG
Take B1: the Octet binding response in test [1] was 0.226 nm; in test [2] it was 0.0948 nm; in test [3], -0.0506 nm. Further, the “processed/unprocessed PreF trimer binding ratio” value in test [4] stood at 0.42.

B2: M2E07 (antibody, V domains shown)
VH: EVQLVESGGGLVQTGGSLRLACAASGFTFSSYAMSWVRQAPGKGLEWVSTITESGDDAYYADSVKGRLTISRDNSKNTLFLHLNGLRSEDTARYYCAKDMGLYKSSWYGNFFYYYYMDVWGEGTTVTVSS
VL: QSALTQPASVSGSPGQSITISCTGSSSNIGSFDLISWYQQHPGKAPKFIIYEGDKRPSGVSYRFSGSKSGSTASLTISGLQAEDEAYYYCCSYARSRTLVFGGGTKVTVL
notes: IgG
Turning to B2, the Octet binding response in test [1] is 0.216 nm; in test [2] it was 0.0476 nm; in test [3], 0.0137 nm. Moreover, in test [4], the “processed/unprocessed PreF trimer binding ratio” value was determined as 0.22.

B3: M3B04 (antibody, V domains shown)
VH: QVQLQESGPGLVKPSETVSLTCTVSGGSISSNNWWSWVRQSPGKGLEWIGEIYHSGSTNFNPSLKSRVTISVDKSKNHFSLKLGSLTAADTAVYYCARRPNDYGDYSYYYYYYMDVWGKGTTVTVSS
VL: EIVLTQSPATLSLSPGESATLSCRASQSINRNLAWYQQKPGQAPRLLIYDASNRATGIPARFSGSGSGTDFTLTISSLEPEDFAVYYCQQRSHWVTFGQGTRLEIK
notes: IgG
With B3, the Octet binding response was found to be 0.177 nm in test [1], 0.0297 nm in test [2] and 0.446 nm in test [3]. In test [4], the “processed/unprocessed PreF trimer binding ratio” value is 0.17.

B4: M2D02 (antibody, V domains shown)
VH: QVQLVQSGAEVKKPGSSVKVSCKASGGTLTRYTISWVRQAPGQGLEWMGRIIPFLDIANYAPRFQGRVTMTADKSTSTAYMELSSLTSQDTAIYYCARDHSGNYFDLWGQGTLVTVSS
VL: EIVMTQSPATLSVSPGERATLSCRASQSVTSNLAWYQRKPGQAPRLLIYGASTGATDIPGRFSGSGSGTEFTLTISGLQSEDFAVYYCQQYDHWPRTFGQGTKVEIK
notes: IgG
Regarding B4, the Octet binding response in test [1] stood at 0.216 nm; in test [2], 0.0468 nm; in test [3], 0.541 nm. In test [4], the “processed/unprocessed PreF trimer binding ratio” value worked out at 0.22.

B5: M2B04 (antibody, V domains shown)
VH: QVQLVQSGPEVKKPGASVKVSCKASGYSITTYGIDWVRQAPGQGLEWIGWSSAHTGNTNYAEKFQGRVTMTTDTSTYTTYMELRSLKSDDTAVYYCAMGAYTSSRNWFDPWGQGTLVIVSS
VL: EIVLTQSPATLSLSPGERATLSCRASQNINNFLAWYQQKAGQAPRLLIYDASNRATGIPGRFSGSGSGTDFTLTISSLEPEDFAVYYCQQRANWPLTFGGGTKVEVK
notes: IgG
As for B5, the Octet binding response was 0.328 nm in test [1], 0.125 nm in test [2] and 0.0152 nm in test [3]. The “processed/unprocessed PreF trimer binding ratio” value in test [4] is 0.38.

B6: M3B12 (antibody, V domains shown)
VH: QVQLVESGGGVVQPGGSLRLSCAASGFTFSSYGMHWVRQAPGKGLEWVAFIRYDGSNKYYADSVKGRFTISRDNSKNTLYLQMNSLRAEDTAVYYCAKDSGSYYYYYYMDVWGKGTTVTVSS
VL: not shown
notes: IgG
With B6, the Octet binding response in test [1] came to 0.157 nm; in test [2], 0.0102 nm; in test [3], 0.417 nm. The “processed/unprocessed PreF trimer binding ratio” value in test [4] worked out at 0.07.

These data come from patent US20240327502A1 (Merck Sharp & Dohme, published 2024).
